{"source": "paper doi:10.1101/2020.03.26.009662", "molecular_target": "ForT, recombinant wild type", "assay": "SEC-MALS", "data": [{"substance": "ForT, recombinant wild type (enzyme)", "values": [{"measurement": "stoichiometry N", "result": 2}]}]}
